This note sets out measurements from paper PMC5599240.

The target of the assay is GluA2 flip receptor, unedited at the pore site (Q-containing), wild type (UniProt P19491).
UniProt P19491, sequence (P19491 other isoform, or with tags, fused parts or gaps): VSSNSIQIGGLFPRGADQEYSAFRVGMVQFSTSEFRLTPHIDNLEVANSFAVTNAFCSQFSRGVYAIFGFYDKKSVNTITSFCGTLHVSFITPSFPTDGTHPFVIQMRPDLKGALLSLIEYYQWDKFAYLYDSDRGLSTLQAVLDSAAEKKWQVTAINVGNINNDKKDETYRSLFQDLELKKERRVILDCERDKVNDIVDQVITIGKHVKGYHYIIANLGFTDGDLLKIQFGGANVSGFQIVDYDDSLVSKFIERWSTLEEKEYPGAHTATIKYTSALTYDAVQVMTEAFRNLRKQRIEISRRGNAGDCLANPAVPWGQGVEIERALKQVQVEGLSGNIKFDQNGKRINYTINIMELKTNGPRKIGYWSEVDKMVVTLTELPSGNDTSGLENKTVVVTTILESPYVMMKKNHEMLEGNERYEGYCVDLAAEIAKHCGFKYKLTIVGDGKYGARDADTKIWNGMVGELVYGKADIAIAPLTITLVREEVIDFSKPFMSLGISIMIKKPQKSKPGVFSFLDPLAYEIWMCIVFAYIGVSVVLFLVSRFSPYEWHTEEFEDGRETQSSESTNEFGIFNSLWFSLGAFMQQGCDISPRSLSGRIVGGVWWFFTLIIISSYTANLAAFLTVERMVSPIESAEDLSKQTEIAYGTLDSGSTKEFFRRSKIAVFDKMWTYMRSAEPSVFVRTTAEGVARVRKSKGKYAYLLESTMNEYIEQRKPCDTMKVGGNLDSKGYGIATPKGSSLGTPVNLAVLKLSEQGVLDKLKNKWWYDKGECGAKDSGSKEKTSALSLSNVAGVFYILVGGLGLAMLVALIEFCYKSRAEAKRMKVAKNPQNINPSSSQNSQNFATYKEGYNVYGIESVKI

B1: TARP γ2 (Stargazin), mouse, wild type (natural protein)
chain: MGLFDRGVQMLLTTVGAFAAFSLMTIAVGTDYWLYSRGVCKTKSVSENETSKKNEEVMTHSGLWRTCCLEGNFKGLCKQIDHFPEDADYEADTAEYFLRAVRASSIFPILSVILLFMGGLCIAASEFYKTRHNIILSAGIFFVSAGLSNIIGIIVYISANAGDPSKSDSKKNSYSYGWSFYFGALSFIIAEMVGVLAVHMFIDRHKQLRATARATDYLQASAITRIPSYRYRYQRRSRSSSRSTEPSHSRDASPVGVKGFNTLPSTEISMYTLSRDPLKAATTPTATYNSDRDNSFLQVHNCIQKDSKDSLHANTANRRTTPV
In the case of B1, the coupling energy of a thermodynamic cycle (γ2 wild type or L2 GS with GluA2 wild type or GAG/GSG), superactivation during 7 s of 10 mM glutamate was determined as 1.08 kcal/mol.
